# Assay results reported in publication PMC11012335, “Hfq-Antisense RNA I Binding Regulates RNase E-Dependent RNA Stability and ColE1 Plasmid Copy Number”.
# Target: Hfq WT (Escherichia coli K-12 MG1655, UniProt P0A6X3 1-102)
# Experiment: EMSA; EMSA: 20 mM Tris-HCl pH 7.6, 0.5 M NaCl, 1 mM EDTA, 1% glycerol, 20 min at 25 C; native PAGE in 0.5x TBE at 4 C
# Settings: protein: recombinant; tags: His tag removed with AcTEV protease; label: 3' fluorescein; single-stranded
binder,measurement,value
"GGGACAGUAUUUG (ssRNA, 3' fluorescein) [BR13]",binding result,binds
